System: corneal epithelium in wounded mouse eyes
Assay: In vivo healing of mouse corneal epithelium (corneal wound model, fluorescein staining)
Parameters: species or system mouse (C57BL/6)
Conditions: positive control, 100 ng/ml; 16 hours post-wounding; compared to Cmpd 3 and Cmpd 10
Description: The FIG. 1s a series of photomicrographs depicting the healing of a wound in the cornea of mouse eye, at time 0 and 16 hours post-wounding, upon treatment with certain compositions of the present invention. Wounds were introduced into the corneas of mice, and the mice treated immediately after wounding with vehicle (PBS), with 100 ng/ml of epidermal growth factor (EGF), or with 25 nM (about 3 mg/kg) of a (Pro-Pro-Gly)7 CMP of the invention (SEQ ID NO:1) (“Cmpd 3”), or of a (Hyp-Pro-Gly)7-SubP CMP-TC of the invention (SEQ ID NO:390) (“Cmpd 10”).
To examine the possible therapeutic effects of CMPs and CMP-TC conjugates of the invention, studies were designed to test certain CMPs and CMP-TC conjugates in an in vivo setting—the healing of the corneal epithelium in wounded mouse eyes. […] Wound size at various time points over 48 hours was examined by fluorescein staining (see Carlson et al., id.), and documented via fluorescent photomicrography, and quantified using Image J software (see Rush, J. S. et al., Investig. Ophthalmol. Visual Sci. 57 (14): 5864-5871 (2016); Rush, J. S. et al., Investig. Ophthalmol. Visual Sci. 55 (8): 4691-4699 (2014)). […]

B1: epidermal growth factor (protein, UniProt P01133 23-1207, looked up)
Pro-epidermal growth factor: PQHWSCPEGTLAGNGNSTCVGPAPFLIFSHGNSIFRIDTEGTNYEQLVVDAGVSVIMDFHYNEKRIYWVDLERQLLQRVFLNGSRQERVCNIEKNVSGMAINWINEEVIWSNQQEGIITVTDMKGNNSHILLSALKYPANVAVDPVERFIFWSSEVAGSLYRADLDGVGVKALLETSEKITAVSLDVLDKRLFWIQYNREGSNSLICSCDYDGGSVHISKHPTQHNLFAMSLFGDRIFYSTWKMKTIWIANKHTGKDMVRINLHSSFVPLGELKVVHPLAQPKAEDDTWEPEQKLCKLRKGNCSSTVCGQDLQSHLCMCAEGYALSRDRKYCEDVNECAFWNHGCTLGCKNTPGSYYCTCPVGFVLLPDGKRCHQLVSCPRNVSECSHDCVLTSEGPLCFCPEGSVLERDGKTCSGCSSPDNGGCSQLCVPLSPVSWECDCFPGYDLQLDEKSCAASGPQPFLLFANSQDIRHMHFDGTDYGTLLSQQMGMVYALDHDPVENKIYFAHTALKWIERANMDGSQRERLIEEGVDVPEGLAVDWIGRRFYWTDRGKSLIGRSDLNGKRSKIITKENISQPRGIAVHPMAKRLFWTDTGINPRIESSSLQGLGRLVIASSDLIWPSGITIDFLTDKLYWCDAKQSVIEMANLDGSKRRRLTQNDVGHPFAVAVFEDYVWFSDWAMPSVMRVNKRTGKDRVRLQGSMLKPSSLVVVHPLAKPGADPCLYQNGGCEHICKKRLGTAWCSCREGFMKASDGKTCLALDGHQLLAGGEVDLKNQVTPLDILSKTRVSEDNITESQHMLVAEIMVSDQDDCAPVGCSMYARCISEGEDATCQCLKGFAGDGKLCSDIDECEMGVPVCPPASSKCINTEGGYVCRCSEGYQGDGIHCLDIDECQLGEHSCGENASCTNTEGGYTCMCAGRLSEPGLICPDSTPPPHLREDDHHYSVRNSDSECPLSHDGYCLHDGVCMYIEALDKYACNCVVGYIGERCQYRDLKWWELRHAGHGQQQKVIVVAVCVVVLVMLLLLSLWGAHYYRTQKLLSKNPKNPYEESSRDVRSRRPADTEDGMSSCPQPWFVVIKEHQDLKNGGQPVAGEDGQAADGSMQPTSWRQEPQLCGMGTEQGCWIPVSSDKGSCPQVMERSFHMPSYGTQTLEGGVEKPHSLLSANPLWQQRALDPPHQMELTQ
modifications: Pro-epidermal growth factor
notes: positive control growth factor
  wound healing in mouse cornea and corneal stroma (reduction in diameter and intensity of fluorescein fluorescence): a lower level of healing

Source: patent US12551525B2, “Collagen peptide-based medicament compositions and devices and methods of production and use thereof” (SUSTAIN HOLDINGS, LLC, priority 2017, dated 2026)
